Assay results taken from US20250340623A1.

Legend:
Settings in all cases: remark: other sources report otherwise
[1] = target: monomeric alpha-synuclein, P37840; experiment: SPR, captured mAb; steady-state model
[2] = target: alpha-synuclein fibrils, P37840; experiment: SPR single-cycle kinetics, antibody captured on anti-mouse chip, alpha-synuclein fibrils injected
[3] = target: monomeric alpha-synuclein, P37840; experiment: SPR, captured mAb; heterogeneous ligand model
[4] = target: alpha-synuclein fibrils, P37840; experiment: SPR, captured mAb
[5] = target: monomeric alpha-synuclein, P37840; experiment: SPR single-cycle kinetics, antibody captured on anti-mouse chip, monomeric alpha-synuclein injected
[6] = target: monomeric alpha-synuclein, P37840; experiment: SPR, captured mAb; alpha-synuclein monomers
[7] = target: monomeric alpha-synuclein, P37840; experiment: SPR, captured mAb
[8] = target: alpha-synuclein fibrils, P37840; experiment: SPR, captured mAb; alpha-synuclein fibrils

B1: ACI-7067-1101C8-Ab2 (antibody, V domains shown)
VH: EVQLVESGGGLVQPKGSLKLSCAASGFSFNIYAMNWVRQAPGKGLEWVARIRSKSNNYATYYADSVKDRFTISRADSESMLYLQMNNLKTEDTAMYYCVRVGLRFYAMDYWGQGTSVTVSS
VL: DVLMTQTPLSLPVSLGDQASISCRSSQSIVHSNGNTYLEWYLQKPGQSPKLLIYKVSNRFSGVPDRFSGSGSGTDFTLKISRVEAEDLGVYYCFQGSQGPLTFGAGTKLELK
[1]
  Kd: 43.7 nM
[2]
  Kd: 1.6 nM
  koff: 0.00024 s⁻¹
[3]
  koff: 0.0265 s⁻¹
  kon: 55500 M⁻¹ s⁻¹
[4]
  Kd: 2.9 nM
  koff: 0.000283 s⁻¹
  kon: 176000 M⁻¹ s⁻¹
[5]
  Kd: 38.8 nM
  koff: 0.019 s⁻¹

B2: ACI-7079-2603F3-Ab1 (antibody, V domains shown)
VH: EVQLVESGGGLVQPKGSLKLSCAASGFTFNTYAMHWVRQAPGKGLEWVARIRSKGSNYATYYADSVKDRFTISRDDSQSMLYLQMNNLKTEDTAMYYCVRGGGDSWFAYWGQGTLVTVSA
VL: QIVLTQSPAIMSASPGERVTMTCTASSSVSYMHWYQQKSGTSPKRWIYDTSKLASGVPARFSGSGSGASYTLTISSMEAEDAATYYCQQWNSNPPTFGGGTQLAIK
[6]
  Kd: 293 nM
[4]
  koff: 1.6e-08 s⁻¹
  kon: 7310 M⁻¹ s⁻¹
[7]
  koff: 0.0149 s⁻¹
  kon: 50800 M⁻¹ s⁻¹
[8]
  Kd: 0.002 nM

B3: ACI-7088-4317A4-Ab1 (antibody, V domains shown)
VH: EVQLQQSGAELVRPGASVKLSCTASGFNIKDDYMHWVKQRPEQGLEWIGWIDPENGDTEYASKFQGKATMTADTSSNTAYLQLSSLTSEDTAVYYCKTWGTTQALFPYWGQGTLVTVSA
VL: DIVMTQSQKFMYTSVGDRVSITCKASQNVGNAVGWYQQKAGQSPKLLIHSASNRYTGVPDRFTGTGSGTDFTLTINNMQSEDLADYFCQQYRSYPLTFGAGTKLELK
[6]
  Kd: 3660 nM
[4]
  koff: 0.000998 s⁻¹
  kon: 337000 M⁻¹ s⁻¹
[7]
  koff: 0.012 s⁻¹
  kon: 3280 M⁻¹ s⁻¹
[8]
  Kd: 3 nM
